Measurements published in doi:10.1101/2023.05.30.542861 (bioRxiv, 2023).

Molecular target: the molecule itself
Assay: cross-linking

B1: L-Glutamate dehydrogenase from bovine liver (enzyme)
chain: not shown
- stoichiometry N: 6
